In patent US11535851B2, “Reagents for treatment of hepatitis B virus (HBV) infection and use thereof” (priority 2016, dated 2022):

B1: shmiR-6: shmiR targeting HBV; RNA SEQ ID NO: 48, encoded by DNA SEQ ID NO: 64 (nucleic acid)
chain: GGUAUAUUGCUGUUGACAGUGAGCGACAGGUCCCCUAGAAGAAGAAACUGUGAAGCAGAUGGGUUUCUUCUUCUAGGGGACCUGCCGCCUACUGCCUCGGACUUCAA
modifications: expressed or natural sequence
B2: shmiR-15: shmiR targeting HBV; RNA SEQ ID NO: 57, encoded by DNA SEQ ID NO: 73 (nucleic acid)
chain: GGUAUAUUGCUGUUGACAGUGAGCGAAGUGGUUCGUAGGGCUUUCCACUGUGAAGCAGAUGGGUGGAAAGCCCUACGAACCACUGCGCCUACUGCCUCGGACUUCAA
modifications: expressed or natural sequence
B3: shmiR-12: shmiR targeting HBV; RNA SEQ ID NO: 54, encoded by DNA SEQ ID NO: 70 (nucleic acid)
chain: GGUAUAUUGCUGUUGACAGUGAGCGAGUCCCGUCGGCGCUGAAUCCACUGUGAAGCAGAUGGGUGGAUUCAGCGCCGACGGGACGCGCCUACUGCCUCGGACUUCAA
modifications: expressed or natural sequence

Assays:
[1] = system: Luciferase reporter constructs carrying effector or effector complement sequences (HBV transcripts); assay: Dual-luciferase reporter assay (strand preference activity) in HEK293 cells; assay type: cell-based; conditions: FIG. 1A; for activity of constructs in luciferase reporter assay: compared directly to corresponding shRNA constructs; for antisense (effector) strand activity (strand preference activity): relative to shRNA expressing counterparts
Protocol: Efficacy of the ddRNAi constructs expressing shmiRs or shRNAs of the disclosure to knockdown HBV transcripts is determined using dual-luciferase reporter assays in HEK293 cells.
Plasmid reporter constructs based on the pGL3 Luciferase Reporter Vector are constructed for effector and effector complement sequences from each of the shmiRs and shRNAs of the disclosure. Luciferase reporter constructs e.g., firefly luciferase reporter constructs, are generated by inserting the respective effector sequence or effector complement sequence of the shmiRs or shRNAs (as appropriate) with 20 bp flanking sequences at each end into the pGL3-control vector (Promega, Madison, Wis.). The inserts are subcloned using FseI and XbaI restriction enzyme sites following the luciferase reporter gene.
The dual-luciferase reporter assays are performed in HEK293 cells (ATCC). The HEK293 cells are cultured in DMEM medium containing 10% fetal bovine serum, 2 mM glutamine, penicillin (100 U/mL), and streptomycin (100 μg/mL) at 37° C. humid incubator with 5% CO2. The HEK293 cell are seeded at a density of 2×10^4 cells per well into 96-well culture plate one day prior to transfection.
ddRNAi expression constructs described in Example 1 (i.e., ddRNAi constructs designated HBV-shmiR1 to HBV-shmiR16, HBV-shmiRx3-v1 and HBV-shmiRx3-v2) are synthesized and inserted into an appropriate plasmid vector e.g., a pSsh vector, optionally with a proximal sequence element 7 (PSE7) for constructs expressing shRNAs.
Expression vectors comprising the ddRNAi expression constructs are co-transfected into HEK293 cells with a Luciferase reporter construct e.g., a firefly luciferase reporter construct, expressing an effector sequence or effector complement sequence of the corresponding shmiR or shRNA (as appropriate) at a ratio of 10:1 (ddRNAi expression construct: Luciferase reporter construct) using 0.3 uL of Lipofectamine 2000 reagent (Life Technologies, Carlsbad, Calif.) according to manufacturer's instructions. Cells are also transfected with 1 ng of a Renilla reporter construct (serving as a transfection control). 48 hour post-transfection, cell lysates are collected and analyzed using Dual Luciferase Reporter Assay System (Promega, Madison, Wis.). The firefly/Renilla activity ratios are determined for each transfection. Percentage inhibition of reporter expression is calculated relative to a negative control e.g., a construct expressing a random non-targeting sequence. The experiment is performed in replicate.
In addition, the three ddRNAi shmiR constructs (i.e., the ddRNAi shmiR constructs expressing shmiR6, shmiR15 and shmiR12 respectively) were compared for strand preference activity relative to their shRNA expressing counterparts.
The influence of addition of an ‘A’ nucleotide at the 3′ end or a ‘G’ nucleotide at the 5′ end of the sense sequence on thermodynamics of the shmiR variant was also assessed. The idea is to allow for the antisense (or effector) strand to be preferentially loaded into the RISC complex for functional RNAi activity.

[2] = system: HBV transcripts at regions corresponding to HBsAg, HBcAg and HbxAg; assay: Inhibition of HBV transcripts in HepG2.2.15 cells transduced with AdV vectors (RT-qPCR, relative to GAPDH mRNA); assay type: cell-based, HBV (serotype ayw, genotype D); conditions: HepG2.2.15, MOI of 100, 3, 4, 5 and 6 days after infection; versus corresponding shRNA constructs; FIG. 4
Protocol: Levels of inhibition of HBV transcripts at regions corresponding to HBV antigens HBsAg, HBcAg and HbxAg, relative to levels of GAPDH mRNA, are determined by normalizing the respective HBV mRNA transcript levels to GAPDH mRNA for each sample. Briefly, 100 ng of total RNA is used to synthesize cDNA using High Capacity cDNA Reverse Transcription Kit (Life Technologies, Carlsbad, Calif.) according to manufacturer instructions. Quantitative PCR amplifications of regions within HBV antigens HBsAg, HBcAg, HbxAg, and GAPDH is then performed using Power SYBR Green PCR Master Mix (Life Technologies) and the primer sets listed in Table 1. Standard real-time PCR conditions are used: initial denaturation at 95° C. for 10 min followed by 40 cycles of 95° C. for 15 sec and 60° C. for 1 min. […]
Levels of inhibition of HBV transcripts at regions corresponding to HBV antigens HBsAg, HBcAg and HbxAg, relative to levels of GAPDH mRNA, were determined according to the method described in Example 5.
Levels of inhibition of HBV transcripts at regions corresponding to HBV antigens HBsAg, HBcAg and HbxAg, relative to levels of GAPDH mRNA, for each shmiR of the disclosure (expressed individually, or as part of a triple construct), was determined at an MOI of 100 at 3, 4, 5 and 6 days after infection with HBV shmir or shRNA AdV vectors.

[3] = system: HepG2.2.15 cells; assay: RNAi effector molecules (copies per cell) in HepG2.2.15 cells transduced with AdV vectors; assay type: cell-based, human; conditions: HepG2.2.15, AdV vectors MOI 100, days 3-6; versus corresponding shRNA; FIG. 3
Protocol: Single and triple shmiR or shRNA AdV vectors were prepared by subcloning the ddRNAi expression constructs described in Example 1 (i.e., ddRNAi constructs designated HBV-shmiR1 to HBV-shmiR16, HBV-shRNA1-HBV-shRNA16, HBV-shmiRx3-v1, HBV-shmiRx3-v2 and HBV-shRNAx3-v1) into a adenovirus (AdV) construct for virus production (Vector Biolabs, Malvern Pa.).
HepG2.2.15 cells were infected with the HBV shmiR AdV vectors or HBV shRNA AdV vectors in cell suspension and cultured on multi-well plates. Each well contained a suspension of approximately 1.25×10^5 HepG2.2.15 cells and one of the single or triple HBV shmiR AdV vectors, or one of the single or triple HBV shRNA AdV vectors, at MOI-100. Following transduction, cells were cultured at 37° C. at 5% CO2 for 3-7 days and harvested for total RNA isolation using Qiagen miRNeasy mini kit (Valencia, Calif.) at 3, 4, 5, and 6 days post-transfection.
Total RNAs were quantified using the NanoDrop 1000 Spectrophotometer (Thermo Scientific) and then diluted to a working concentration of 10 ng/μl.
RNAi effector molecules expressed as copies per cell were determined for shmiR-12 and shmiR-15 (FIGS. 3A and 3B, respectively) when expressed in HepG2.2.15 cells from single or triple HBV shmiR AdV vector(s) using Qiagen's miScript PCR system (designed to quantitate RNA effector molecules processed from shmiR or shRNA). […]

Row | Molecule | activity of constructs in luciferase reporter assay [1] | antisense (effector) strand activity (strand preference activity) [1] | silencing of HBV RNAs (HBsAg, HBcAg, HbxAg regions) [2] | levels of effector RNAi molecule (copies per cell) [3]
1 | B1 | more effective than the corresponding shRNA constructs | higher antisense (effector) strand activity relative to the corresponding shRNAs |  | 
2 | B2 | more effective than the corresponding shRNA constructs | higher antisense (effector) strand activity relative to the corresponding shRNAs | greater silencing of HBV RNAs compared to the corresponding shRNA expressing constructs | higher than the corresponding shRNAs
3 | B3 | more effective than the corresponding shRNA constructs | higher antisense (effector) strand activity relative to the corresponding shRNAs | greater silencing of HBV RNAs compared to the corresponding shRNA expressing constructs | higher than the corresponding shRNAs
